Data published in the supplement of paper PMC9112550, “Optimization of the antimicrobial peptide Bac7 by deep mutational scanning” (BMC Biology, 2022).

System: Escherichia coli TOP10
Test: shrunken log2 fold change of peptide-encoding DNA abundance (4.5 h post-induction vs induction); higher = less antimicrobial activity (less host growth inhibition)
Settings: time post-induction: 4.5 h; library: site-saturation at positions 5, 18, 19, 20
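Further: peptides expressed intracellularly from a pBAD plasmid library in pooled LB shake-flask culture, induced with 0.3% L-arabinose, DNA abundance read by NGS, three biological replicates, DESeq2 with apeglm shrinkage.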

Row | Sequence | shrunken log2 fold change
1 | RRIRGRPPRLPRPRPRPLEQPRP | 0.435
2 | RRIRGRPPRLPRPRPRPIKLPRP | 0.125
3 | RRIRDRPPRLPRPRPRPAPAPRP | 0.661
4 | RRIRWRPPRLPRPRPRPAGRPRP | 0.695
5 | RRIRKRPPRLPRPRPRPLTHPRP | 0.0737
6 | RRIRLRPPRLPRPRPRPRPHPRP | 0.364
7 | RRIRARPPRLPRPRPRPHYVPRP | -0.255
8 | RRIRNRPPRLPRPRPRPATKPRP | -0.0346
9 | RRIRVRPPRLPRPRPRPPRHPRP | 0.252
10 | RRIRCRPPRLPRPRPRPHGCPRP | -0.037
11 | RRIRCRPPRLPRPRPRPCRGPRP | -0.243
12 | RRIRVRPPRLPRPRPRPMHAPRP | -0.00559
13 | RRIRIRPPRLPRPRPRPMQEPRP | -0.2
14 | RRIRGRPPRLPRPRPRPGTPPRP | 0.919
15 | RRIRYRPPRLPRPRPRPPKEPRP | -0.00185
16 | RRIRYRPPRLPRPRPRPNQTPRP | -0.0672
17 | RRIRSRPPRLPRPRPRPDPRPRP | 0.215
18 | RRIRTRPPRLPRPRPRPCVYPRP | -0.243
19 | RRIRTRPPRLPRPRPRPCCGPRP | 0.635
20 | RRIRTRPPRLPRPRPRPKRWPRP | 0.723
21 | RRIRGRPPRLPRPRPRPFLNPRP | 0.18
22 | RRIRDRPPRLPRPRPRPPMPPRP | 0.203
23 | RRIRYRPPRLPRPRPRPVESPRP | -0.0746
24 | RRIRARPPRLPRPRPRPILHPRP | -0.0341
25 | RRIRRRPPRLPRPRPRPHMSPRP | -0.0996
26 | RRIRWRPPRLPRPRPRPMHGPRP | -0.138
27 | RRIRPRPPRLPRPRPRPHYWPRP | -0.41
28 | RRIRGRPPRLPRPRPRPPHCPRP | 0.902

Row | Sequence | shrunken log2 fold change
29 | RRIRSRPPRLPRPRPRPERFPRP | 0.196
30 | RRIRWRPPRLPRPRPRPVQGPRP | -0.124
31 | RRIRCRPPRLPRPRPRPVFNPRP | -0.204
32 | RRIRHRPPRLPRPRPRPHQWPRP | -0.0218
33 | RRIRWRPPRLPRPRPRPLAWPRP | 0.474
34 | RRIRYRPPRLPRPRPRPDIDPRP | -0.172
35 | RRIRLRPPRLPRPRPRPQPQPRP | 0.396
36 | RRIRNRPPRLPRPRPRPDDYPRP | 0.00129
37 | RRIRRRPPRLPRPRPRPEENPRP | 0.157
38 | RRIRFRPPRLPRPRPRPVINPRP | -0.816
39 | RRIRNRPPRLPRPRPRPLLDPRP | 0.0489
40 | RRIRFRPPRLPRPRPRPYDPPRP | -0.0102
41 | RRIRWRPPRLPRPRPRPMIKPRP | -0.353
42 | RRIRPRPPRLPRPRPRPPFYPRP | 0.0888
43 | RRIRARPPRLPRPRPRPTIRPRP | 0.109
44 | RRIRYRPPRLPRPRPRPAPIPRP | 0.226
45 | RRIRMRPPRLPRPRPRPSQSPRP | 0.53
46 | RRIRDRPPRLPRPRPRPEENPRP | 1.11
47 | RRIRDRPPRLPRPRPRPFMPPRP | -0.124
48 | RRIRIRPPRLPRPRPRPCMCPRP | -0.422
49 | RRIRRRPPRLPRPRPRPDMDPRP | -0.108
50 | RRIRDRPPRLPRPRPRPLYGPRP | -0.105
51 | RRIRYRPPRLPRPRPRPDNFPRP | -1.09
52 | RRIRSRPPRLPRPRPRPHTEPRP | -0.599
53 | RRIRQRPPRLPRPRPRPYDHPRP | -0.534
54 | RRIRERPPRLPRPRPRPIAKPRP | 0.0393
55 | RRIRFRPPRLPRPRPRPQQNPRP | 0.383
